Assay results as given in patent US10357539B2, “Use of peptides that block metadherin-SND1 interaction as treatment for cancer” (THE TRUSTEES OF PRINCETON UNIVERSITY, priority 2014, dated 2019).
Positions count from the first letter of the chain named. Numbers in names are those of the source.

How the values were obtained:
[1] = molecular target: T1, MTDH (364-582) (Homo sapiens, UniProt Q86UE4); experiment: GST-mediated pull-down of SND1 constructs and mutants by GST-tagged MTDH (364-582); format: binding; settings: SND1 mutants in SND1 (16-339)
T1 construct: made in house; host or cells: E. coli DH5α
T1 sequence (Q86UE4 364-582): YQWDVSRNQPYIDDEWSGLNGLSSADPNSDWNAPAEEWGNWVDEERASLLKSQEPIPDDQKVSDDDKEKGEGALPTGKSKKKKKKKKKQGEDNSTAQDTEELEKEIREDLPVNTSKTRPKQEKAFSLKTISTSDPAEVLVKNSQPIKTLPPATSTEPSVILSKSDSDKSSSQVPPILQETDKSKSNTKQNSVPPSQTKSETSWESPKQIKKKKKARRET
Excerpt: (§1) (FIG. 22A) In vitro pull-down of SND1 (16-339) by GST-tagged MTDH (364-582) harboring WT or mutant sequence. The proteins bound to GS4B were examined on SDS-PAGE and visualized by Coomassie blue staining. (FIG. 22B) In vitro pull-down of WT and mutant SND1 (16-339) by GST-tagged MTDH (364-582). The bound proteins were examined as in (FIG. 22A). For both (FIG. 22A) and (FIG. 22B), experiments were repeated three times; representative results are shown. The normalized percentage of binding was averaged from three experiments; mean±SEM was shown below the data. (FIG. 22C) HEK293T cells were transfected with human HA-SND1, WT Myc-MTDH or Myc-MTDH with indicated single point mutation. Lysates were immunoprecipitated with anti-Myc antibody and immunoblotted with the indicated antibodies. (FIG. 22D) HEK293T cells were transfected with human Myc-MTDH, WT HA-SND1 or mutant HA-SND1 with indicated single point mutations or deletions. Lysates were immunoprecipitated with anti-Myc and immunoblotted with the indicated antibodies.
(§2) GST-Mediated Pull-Down Assay: ˜20 μg of GST-MTDH (different truncation forms and site mutants) was bound to 10 μl of glutathione resin via GST tag. The resin was washed with 200 μl assay buffer (25 mM Tris, PH8.0, 150 mM NaCl, 3 mM DTT) three times to remove the excess unbound protein. 15 μg of His-SND1 (16-339) was added to the resin in a 100 μl volume suspended in the assay buffer with 2 mg/ml of BSA. The mixture was washed with 200 μl assay buffer twice before examined by SDS-PAGE, and visualized by Coomassie blue staining. The experiments were repeated 3 times and the ratio of SND1 associated with GST-MTDH was analyzed by ImageJ.

[2] = molecular target: T2, SND1 (Homo sapiens, UniProt Q7KZF4); experiment: GST-mediated pull-down of SND1 by GST-tagged MTDH fragments and mutants; format: binding; settings: SND1 (16-339); GST-tagged MTDH (364-582)
T2 construct: 15 μg of His-SND1 (16-339) was added to the resin; made in house; host or cells: E. coli DH5α
T2 sequence (Q7KZF4 16-339): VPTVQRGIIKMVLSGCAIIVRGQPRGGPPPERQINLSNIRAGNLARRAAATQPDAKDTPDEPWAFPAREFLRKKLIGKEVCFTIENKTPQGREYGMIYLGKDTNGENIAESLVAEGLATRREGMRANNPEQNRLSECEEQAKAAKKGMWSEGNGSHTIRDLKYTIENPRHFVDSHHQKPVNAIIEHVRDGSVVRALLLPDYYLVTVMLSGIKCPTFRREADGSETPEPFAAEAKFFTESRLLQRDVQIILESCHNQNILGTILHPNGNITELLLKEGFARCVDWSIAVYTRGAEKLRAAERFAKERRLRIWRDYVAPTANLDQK
Excerpt: (§3) FIGS. 7A-E represents determination of key regions and residues mediating the MTDH-SND1 interaction. (FIG. 7A) Schematics of MTDH fragments and mutants with indicated SND1-binding capability. + indicates binding and − indicates no binding based on results shown below. Two putative nuclear localization signals are residues 432-451 for NLS2 and residues 561-580 for NLS3. In the enlarged view of the minimal binding region 386-407, 9 residues were targeted for mutagenesis in the current study. […] (FIG. 7B) Pulldown of His6-SND1AC by GST-tagged MTDH fragments with indicated boundaries. The bound proteins were examined by SDS-PAGE and visualized by Coomassie blue staining. (FIG. 7C) Pulldown of His6-SND1ΔC by GST-tagged WT or triple mutant MTDH fragments (364-582). For (FIG. 7B) and (FIG. 7C), 1/10 of the His6-SND1ΔC input was shown, and GST alone was used as a negative control. Representative results of 3 independent experiments are shown. (FIG. 7D, FIG. 7E) Lysates from HEK293T cells expressing the indicated ectopic human SND1, AGO2 or MTDH were immunoprecipitated with anti-Myc and immunoblotted with the indicated antibodies.
as §1, §2

[3] = molecular target: T3, SND1 (Homo sapiens, UniProt Q7KZF4); experiment: Co-immunoprecipitation of full-length Myc-MTDH (WT or mutant) and HA-SND1 in HEK293T cells; format: cell-based; settings: HEK293T cell lysates, immunoprecipitation and immunoblot
T3 construct: Full-length HA-tagged SND1 was co-expressed with full-length Myc-tagged wild-type (WT) or mutant MTDH in HEK293T cells; expressed in transfected cells; host or cells: HEK293T
T3 sequence (Q7KZF4 1-910): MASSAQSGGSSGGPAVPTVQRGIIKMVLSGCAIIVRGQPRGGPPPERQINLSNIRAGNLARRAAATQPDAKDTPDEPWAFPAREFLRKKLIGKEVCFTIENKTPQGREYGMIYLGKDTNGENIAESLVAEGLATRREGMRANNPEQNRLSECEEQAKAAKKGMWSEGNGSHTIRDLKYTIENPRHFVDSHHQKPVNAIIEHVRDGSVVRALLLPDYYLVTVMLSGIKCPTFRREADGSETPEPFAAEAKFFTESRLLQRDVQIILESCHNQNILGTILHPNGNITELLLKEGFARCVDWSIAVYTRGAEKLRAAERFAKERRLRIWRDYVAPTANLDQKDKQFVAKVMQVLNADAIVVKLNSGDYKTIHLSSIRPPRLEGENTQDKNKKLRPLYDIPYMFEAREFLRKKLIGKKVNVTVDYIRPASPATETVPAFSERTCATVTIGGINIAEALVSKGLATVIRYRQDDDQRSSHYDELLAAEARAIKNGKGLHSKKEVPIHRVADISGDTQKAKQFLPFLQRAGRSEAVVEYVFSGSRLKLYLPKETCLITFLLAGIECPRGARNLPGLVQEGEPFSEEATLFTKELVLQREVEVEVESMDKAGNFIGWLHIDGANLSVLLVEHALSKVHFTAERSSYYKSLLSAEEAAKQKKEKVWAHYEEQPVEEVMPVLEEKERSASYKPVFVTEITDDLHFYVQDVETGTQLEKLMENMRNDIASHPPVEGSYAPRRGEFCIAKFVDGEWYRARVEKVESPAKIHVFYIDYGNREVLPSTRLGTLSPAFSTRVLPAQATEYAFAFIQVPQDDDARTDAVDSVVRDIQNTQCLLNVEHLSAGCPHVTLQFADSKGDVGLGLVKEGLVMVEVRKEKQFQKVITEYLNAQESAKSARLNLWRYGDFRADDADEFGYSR
Excerpt: as §3, §1
Immunoprecipitation and western blot For immunoprecipitation (IP) experiments, cultured cells were washed in cold PBS and lysed in lysis buffer (20 mM Tris pH 7.4, 0.15 M NaCl, 1 mM EDTA, 1 mM EGTA, 1% Tx-100, 0.0025 M Na2P2O7, 1 mM α-glycerolphosphate, 1 mM Na3VO4, and 1 mM NaF) with an EDTA-free protease inhibitor mixture (Roche Applied Science) and PMSF. Cell lysates were then incubated on ice for 10 min, centrifuged, and precleared by incubating with protein A/G beads (Santa Cruz Biotechnology) for 1 h at 4° C. For IP bead preparation, 30 μl of protein A/G beads were incubated with 5 μg of antibodies for 2 h at 4° C. IPs were carried out for overnight at 4° C., and beads were centrifuged, washed and subsequently boiled for 5 min in SDS protein loading buffer to elute bound protein. IP lysates were subjected to western blotting with indicated antibodies.
Immunoprecipitation and western blot: For in vivo immunoprecipitation (IP) experiments, cultured cells were washed in cold PBS and lysed in lysis buffer (20 mM Tris pH 7.4, 0.15 M NaCl, 1 mM EDTA, 1 mM EGTA, 1% Tx-100, 0.0025 M Na2P2O7, 1 mM β-glycerolphosphate, 1 mM Na3VO4, and 1 mM NaF) with an EDTA-free protease inhibitor mixture (Roche Applied Science) and PMSF. Cell lysates were then incubated on ice for 10 min, centrifuged, and precleared by incubating with protein A/G beads (Santa Cruz Biotechnology) for 1 h at 4° C. For IP bead preparation, 30 μl of protein A/G beads were incubated with 5 μg of antibodies for 2 h at 4° C. IPs were carried out for overnight at 4° C., and beads were centrifuged, washed and subsequently boiled for 5 min in SDS protein loading buffer to elute bound protein. IP lysates were subjected to western blotting with indicated antibodies.

B1: SN1/2 domains: SND1 N-terminal SN1/2 domains, amino acids 16-339 of SEQ ID NO: 2 (protein, listed as Homo sapiens)
chain: T2 sequence (Q7KZF4 16-339)
Q: With B1 as the molecule, how does the “MTDH-binding of SND1 domains and mutants, in vitro” value (“MTDH-binding” below) [1] read?
A: bind stoichiometrically with MTDH

B2: R324A: SND1 mutant R324A (protein)
chain: T2 sequence (Q7KZF4 16-339) with R309A
modifications: left off: small tags and cut ends
Q: Which “MTDH-binding” value [1] does the source give for B2 here?
A: barely affected MTDH-binding

B3: D389R: MTDH single point mutant D389R (protein, listed as Homo sapiens)
chain: MAARSWQDELAQQAEEGSARLREMLSVGLGFLRTELGLDLGLEPKRYPGWVILVGTGALGLLLLFLLGYGWAAACAGSRKKRRSPPRKREEAAAVPAAAPDDLALLKNLRSEEQKKKNRKKLSEKPKPNGRTVEVAEGEAVRTPQSVTAKQPPEIDKKNEKSKKNKKKSKSDAKAVQNSSRHDGKEVDEGAWETKISHREKRQQRKRDKVLTDSGSLDSTIPGIENTITVTTEQLTTASFPVGSKKNKGDSHLNVQVSNFKSGKGDSTLQVSSGLNENLTVNGGGWNEKSVKLSSQISAGEEKWNSVSPASAGKRKAEPSAWSQDTGDANTNGKDWGRSWSDRSIFSGIGSTAEPVSQSTTSDYQWDVSRNQPYIDDEWSGLNGLSSARPNSDWNAPAEEWGNWVDEERASLLKSQEPIPDDQKVSDDDKEKGEGALPTGKSKKKKKKKKKQGEDNSTAQDTEELEKEIREDLPVNTSKTRPKQEKAFSLKTISTSDPAEVLVKNSQPIKTLPPATSTEPSVILSKSDSDKSSSQVPPILQETDKSKSNTKQNSVPPSQTKSETSWESPKQIKKKKKARRET
Q: Which “SND1-binding of MTDH (364-582) point mutants, in vitro” value [2] does the source give for B3 here?
A: barely had any effect

Q: And the “interaction of full-length MTDH (WT or mutant) with HA-SND1” value [3]?
A: did not affect the interaction

B4: SN3/4-TSN5 domains: SND1 C-terminal SN3/4-TSN5 domains, amino acids 340-885 of SEQ ID NO: 2 (protein, listed as Homo sapiens)
chain: DKQFVAKVMQVLNADAIVVKLNSGDYKTIHLSSIRPPRLEGENTQDKNKKLRPLYDIPYMFEAREFLRKKLIGKKVNVTVDYIRPASPATETVPAFSERTCATVTIGGINIAEALVSKGLATVIRYRQDDDQRSSHYDELLAAEARAIKNGKGLHSKKEVPIHRVADISGDTQKAKQFLPFLQRAGRSEAVVEYVFSGSRLKLYLPKETCLITFLLAGIECPRGARNLPGLVQEGEPFSEEATLFTKELVLQREVEVEVESMDKAGNFIGWLHIDGANLSVLLVEHALSKVHFTAERSSYYKSLLSAEEAAKQKKEKVWAHYEEQPVEEVMPVLEEKERSASYKPVFVTEITDDLHFYVQDVETGTQLEKLMENMRNDIASHPPVEGSYAPRRGEFCIAKFVDGEWYRARVEKVESPAKIHVFYIDYGNREVLPSTRLGTLSPAFSTRVLPAQATEYAFAFIQVPQDDDARTDAVDSVVRDIQNTQCLLNVEHLSAGCPHVTLQFADSKGDVGLGLVKEGLVMVEVRKEKQFQKVITEYLNAQESA
Q: For B4, which “MTDH-binding” value [1] is on record?
A: barely interact with MTDH
